In article PMC5827684:

Tests used:
[1] = test system: IscR-C92A (apo-locked) (Escherichia coli); assay: EMSA
[2] = test system: Fur (Mn2+-Fur) (Escherichia coli); assay: EMSA

Substance | binding [1] [nM] | binding [2] [nM]
control DNA in 3' end of hmuR coding region | 250 | 
hmuR promoter (p1) |  | 31.2
hmuR-hmuS intergenic, larger fragment | 62.5 | 
